Source: patent publication US20110195494A1 (Boehringer Ingelheim, published 2011)

How the values were obtained:
[1] = target: T1, recombinant human DLL4, C-terminally His-tagged extracellular domain (R&D Systems) (human, UniProt Q9NR61 25-522, biotinylated where used in competition ELISA, AlphaScreen and on SA chips); assay: competition ELISA, periplasmic extract
T1 construct: also called rhDLL4; hDLL4; not shown: C-terminal His tag

[2] = target: T1, recombinant human DLL4, C-terminally …; assay: hDLL4/hNotch1-Fc AlphaScreen, periplasmic extract
Experimental: Periplasmic extracts are screened in a human DII4/human Notch1 AlphaScreen assay to assess the blocking capacity of the expressed VHHs. Human DII4 is biotinylated using biotin (Sigma, St Louis, Mo., USA) and biotinamidohexanoic acid 3-sulfo-N-hydroxysuccinimide ester sodium salt (Sigma, St Louis, Mo., USA). […] To evaluate the neutralizing capacity of the VHHs, dilution series of the periplasmic extracts are pre-incubated with biotinylated human DII4. To this mixture, the acceptor beads and the streptavidin donor beads are added and further incubated for 1 hour at room temperature. Fluorescence is measured by reading plates on the Envision Multilabel Plate reader (Perkin Elmer, Waltham, Mass., USA) using an excitation wavelength of 680 nm and an emission wavelength of 520 nm.

[3] = target: T2, full length human DLL4 on overexpressing CHO or HEK293 cells (human, UniProt Q9NR61 27-685); assay: FMAT, hNotch1/Fc on CHO-hDLL4, periplasmic extract
T2 construct: also called CHO-hDLL4; HEK293-hDII4
From the text: (§1) All calculations are based on the FL1 total signal which comprises the average of the fluorescence per well times the number of counts per well.

[4] = target: T3, full length mouse DLL4 on overexpressing CHO or HEK293 cells (mouse, UniProt Q9JI71 27-686); assay: FMAT, hNotch1/Fc on CHO-mDLL4, periplasmic extract
T3 construct: whole, on cells; also called CHO-mDLL4; mDLL4
From the text: as §1

T1 sequence (Q9NR61 25-522): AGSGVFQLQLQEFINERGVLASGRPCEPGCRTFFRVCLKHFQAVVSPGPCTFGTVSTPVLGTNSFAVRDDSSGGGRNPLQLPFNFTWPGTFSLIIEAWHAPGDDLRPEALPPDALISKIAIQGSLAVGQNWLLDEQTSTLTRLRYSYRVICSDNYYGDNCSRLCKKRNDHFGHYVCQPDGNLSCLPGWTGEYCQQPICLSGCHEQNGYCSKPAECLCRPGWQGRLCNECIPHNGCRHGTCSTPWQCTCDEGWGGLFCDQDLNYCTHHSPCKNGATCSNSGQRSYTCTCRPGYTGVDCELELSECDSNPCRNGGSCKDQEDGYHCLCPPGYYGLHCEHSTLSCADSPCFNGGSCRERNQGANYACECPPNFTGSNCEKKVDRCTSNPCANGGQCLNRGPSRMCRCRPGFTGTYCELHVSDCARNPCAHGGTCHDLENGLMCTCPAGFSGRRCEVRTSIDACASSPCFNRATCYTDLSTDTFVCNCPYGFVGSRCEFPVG
T2 sequence (Q9NR61 27-685 limits assumed): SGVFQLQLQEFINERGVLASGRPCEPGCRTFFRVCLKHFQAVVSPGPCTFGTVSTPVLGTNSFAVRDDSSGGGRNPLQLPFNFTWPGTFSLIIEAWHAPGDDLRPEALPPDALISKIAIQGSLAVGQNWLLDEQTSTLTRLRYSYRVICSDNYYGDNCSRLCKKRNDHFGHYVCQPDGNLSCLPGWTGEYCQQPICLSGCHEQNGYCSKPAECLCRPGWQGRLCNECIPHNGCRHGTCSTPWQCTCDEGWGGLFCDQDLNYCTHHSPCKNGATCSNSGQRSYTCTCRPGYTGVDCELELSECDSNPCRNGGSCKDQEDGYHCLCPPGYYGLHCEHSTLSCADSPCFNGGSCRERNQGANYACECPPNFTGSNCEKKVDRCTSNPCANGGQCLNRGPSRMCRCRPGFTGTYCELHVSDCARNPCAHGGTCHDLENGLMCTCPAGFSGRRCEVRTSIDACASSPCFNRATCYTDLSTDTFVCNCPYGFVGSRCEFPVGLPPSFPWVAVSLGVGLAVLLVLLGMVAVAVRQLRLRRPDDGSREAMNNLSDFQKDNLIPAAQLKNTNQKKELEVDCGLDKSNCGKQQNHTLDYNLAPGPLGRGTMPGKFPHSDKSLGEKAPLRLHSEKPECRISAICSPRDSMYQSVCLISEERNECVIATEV
T3 sequence (Q9JI71 27-686): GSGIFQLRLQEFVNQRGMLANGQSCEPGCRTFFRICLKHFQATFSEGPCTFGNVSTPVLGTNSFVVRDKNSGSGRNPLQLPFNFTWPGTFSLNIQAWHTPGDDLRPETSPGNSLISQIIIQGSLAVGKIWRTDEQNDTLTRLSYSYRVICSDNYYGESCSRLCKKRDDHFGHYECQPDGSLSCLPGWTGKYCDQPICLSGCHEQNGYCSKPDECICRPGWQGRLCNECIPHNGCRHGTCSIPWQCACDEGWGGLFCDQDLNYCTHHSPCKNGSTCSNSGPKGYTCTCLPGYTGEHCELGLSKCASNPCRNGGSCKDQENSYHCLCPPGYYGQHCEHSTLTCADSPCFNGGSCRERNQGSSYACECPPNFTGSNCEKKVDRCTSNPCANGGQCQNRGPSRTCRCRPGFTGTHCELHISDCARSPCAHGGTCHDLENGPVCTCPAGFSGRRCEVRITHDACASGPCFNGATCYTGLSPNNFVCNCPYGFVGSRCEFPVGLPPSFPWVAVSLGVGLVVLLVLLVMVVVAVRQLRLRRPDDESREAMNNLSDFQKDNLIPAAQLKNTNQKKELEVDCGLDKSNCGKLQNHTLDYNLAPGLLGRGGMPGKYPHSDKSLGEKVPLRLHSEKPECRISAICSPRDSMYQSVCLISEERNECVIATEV

B1: DLLBII19D10 (VHH)
VHH: EVQLVESGGGLVQAGDSLRLSCAASGRTVGSYDMSWVRQGPGKEREWVSSINSGVGKTYYADSVKGRFTIFRDNAKNMVYLQMNNLKPEDTAVYYCATEMDGSRYVEGQGTQVTVSS
notes: tested as periplasmic extract; not shown: C-terminal c-myc tag and His6 tag
ELISA hDLL4 % inhibition [1]: 98%
Alpha Screen hDLL4 % inhibition [2]: 85%

B2: DLLBII80E08 (VHH)
VHH: EVQLVESGGGLVQAGGSLTLSCAASGGTFTTYAMGWFRQAPGKEREFVAAVSRFGVSWDYADSVKGRFTISRDNTANTLKLRMNSLKADDTAVYYCAAGGRSFLPFVPAYWGQGTQVTVSS
notes: tested as periplasmic extract; also called DLLBII80E8; not shown: C-terminal c-myc tag and His6 tag
FMAT hDLL4 % inhibition [3]: 71%
FMAT mDLL4 % inhibition [4]: 82%

B3: DLLBII104B05 (VHH)
VHH: EVQLVESGGGSVQAGGSLRLSCAASGSISRIDVMAWYRQAPGKERELVASISSGGSTNYADSVKGRFTISREYFKNMMYLQMNSLKFEDTAVYYCNADSRRGGVGNFFRSWGQGTQVTVSS
notes: tested as periplasmic extract; also called DLLBII104B5; not shown: C-terminal c-myc tag and His6 tag
FMAT hDLL4 % inhibition [3]: 86%
FMAT mDLL4 % inhibition [4]: 78%

B4: DLLBII102F08 (VHH)
VHH: EVQLVESGGGLVQTGDSLRLSCAASGSTFSNYRMGWFRQGPGKEREFVAAIGRNGQNTYYTDSVKGRFTVTRDNAKNMVYLQMNSLKPEDSAVYTCAASLRGWDTTRIDYEYWGQGTQVTVSS
notes: tested as periplasmic extract; also called DLLBII102F8; not shown: C-terminal c-myc tag and His6 tag
FMAT hDLL4 % inhibition [3]: 85%
FMAT mDLL4 % inhibition [4]: 75%

B5: DLLBII102G04 (VHH)
VHH: EVQLMESGGGLVQPGGSLRLSCAASGFTFSSYAMSWVRQAPGKGLEWVSRITSGGRTTYRDSVKGRFTISRDNSKNTLYLQMNSLKPEDTALYYCAKARGDIDVYTLSDSRGQGTQVTVSS
notes: tested as periplasmic extract; also called DLLBII102G4; not shown: C-terminal c-myc tag and His6 tag
FMAT hDLL4 % inhibition [3]: 86%
FMAT mDLL4 % inhibition [4]: 82%

B6: DLLBII112A04 (VHH)
VHH: EVQLVESGGGLVQAGGSLRLSCAAFGRTPYGMGWFRQAPGKEREFVAAITSDGSTNYADSVKGRFTISRDNAKNAVSLQMNSLKPEDTAVYYCTAPYYSDFEGTTTEYDYWGQGTQVTVSS
notes: tested as periplasmic extract; also called DLLBII112A4; not shown: C-terminal c-myc tag and His6 tag
FMAT hDLL4 % inhibition [3]: 75%
FMAT mDLL4 % inhibition [4]: 90%

B7: DLLBII8C11 (VHH)
VHH: EVQLVESGGGLVQAGGSLRLSCAASGFTFDDYAIGWFRQAPGKEREGVSCISSHDRTTYYADSVKGRFTISSDNAKNTVYLQMNSLKPEDTAVYYCAADPLVCGYNDPRLADYWGQGTQVTVSS
notes: also called DLLBII08C11; not shown: C-terminal c-myc tag and His6 tag
ELISA hDLL4 % inhibition [1]: 57%

B8: DLLBII58A11 (VHH)
VHH: EVQLVESGGGLVQAGGSLRLSCTTSERTVSRYSMGWFRQAPGKEREAVATISWSGDSTYYADSVKGRFTISRDNTKNTLYLQIDSLKPEDTAVYYCVAKPNLKYGSYWPPRGYDYWGQGTQVTVSS
notes: as for B1
FMAT hDLL4 % inhibition [3]: 95%
FMAT mDLL4 % inhibition [4]: 73%

B9: DLLBII8A09 (VHH)
VHH: EVQLVESGGGLVQPGGSLRLSCAASGFTLDYYNIGWFRQAPGKEREWVSCINSSDGSTYYADSVKGRFTISRDNAKNTVYLQMNSLKPEDTAVYYCAAPFAYYSNLCGVNGYDYWGQGTQVTVSS
notes: also called DLLBII08A09; not shown: C-terminal c-myc tag and His6 tag
ELISA hDLL4 % inhibition [1]: 96%

B10: DLLBII47D01 (VHH)
VHH: EVQLVESGGGLVQPGGSLRLSCAASGFTFDDYAIGWFRQAPGKEREGVSCISSSGSTYYADSVKGRFTISRDNAKNTVYLQMNSLKPEDTAVYYCAIAGASSWCFPPGYWGQGTQVTVSS
notes: tested as periplasmic extract; also called DLLBII47D1; not shown: C-terminal c-myc tag and His6 tag
FMAT hDLL4 % inhibition [3]: 87%

B11: DLLBII112A03 (VHH)
VHH: EVQLVESGGGLVQPGGSLRLSCAASGIRFSINGMGWYRQAPGKQREAVATITRGGIRDYTDSVKGRFTISRDIARNTVYLQMNNLKPEDSAVYYCNIDIYWGRGTQVTVSS
notes: tested as periplasmic extract; also called DLLBII112A3; not shown: C-terminal c-myc tag and His6 tag
FMAT hDLL4 % inhibition [3]: 72%
FMAT mDLL4 % inhibition [4]: 97%

B12: DLLBII33C05 (VHH)
VHH: EVQLVESGGGLVQAGGSLRLSCAASGFTLDNYVIGWFRQAPGKEREEVSCISSSGGSTDYLDSVKGRFTISRDNAKNTVYLQMNSLKPEDTAVYYCAADSLPCYYDKMVYDYWGQGTQVTVSS
notes: tested as periplasmic extract; also called DLLBII33C5; not shown: C-terminal c-myc tag and His6 tag
ELISA hDLL4 % inhibition [1]: 86%
Alpha Screen hDLL4 % inhibition [2]: 75%

B13: DLLBII101F01 (VHH)
VHH: EVQLVESGGGLVQAGGSLRLSCAASGRTFSNYAMGWFRQAPGKEREFVAAISWSGGDTYYADSVKGRFTISRDNAKNTVCLQMNSLKPEDTAVYYCAASFQSGAAPGANFYDYWGQGTQVTVSS
notes: tested as periplasmic extract; also called DLLBII101F1; not shown: C-terminal c-myc tag and His6 tag
FMAT hDLL4 % inhibition [3]: 85%
FMAT mDLL4 % inhibition [4]: 78%

B14: DLLBII6B11 (VHH)
VHH: EVQLVESEGGLVQAGGSLRLSCAASGSTFSSYAMGWYRQAPGKQRELVAVISNGGITNYPNSVKGRFTISRDNAKNTVYLQMNSLKPEDTAVYYCFYSGSYYYPTDVHEYDYWGQGTQVTVSS
notes: also called DLLBII06B11; not shown: C-terminal c-myc tag and His6 tag
ELISA hDLL4 % inhibition [1]: 98%

B15: DLLBII7B05 (VHH)
VHH: EVQLVESGGGLVQAGGSLRLSCAASGFALDYYAVGWFRQAPGKEREGVSCISSRGGSTFYADSVKGRFTTSRNNAKNTVYLQMNSLKPEDTAVYYCAAHPLQNCCGGSAYASPEAVYEYWGQGTQVTVSS
notes: also called DLLBII07B05; DLLBII7B5; not shown: C-terminal c-myc tag and His6 tag
ELISA hDLL4 % inhibition [1]: 84%

B16: DLLBII5B11 (VHH)
VHH: EVQLVESGGGLVQPGGSLRLSCAISGFTLDLHVIGWLRQAPGKEREWVSCISSSDGSTYYADSVKGRFTISRDNAKNTVYLQMNSLKPEDTAVYYCAAPWDSWYCGIGNDYDYWGQGTQVTVSS
notes: also called DLLBII05B11; not shown: C-terminal c-myc tag and His6 tag
ELISA hDLL4 % inhibition [1]: 98%

B17: DLLBII115A05 (VHH)
VHH: EVQLVESGGGLVQPGGSLRLSCAASGFTFGSYDMSWVRRSPGKGPEWVSSINSGGGSTYYADFVKGRFTISRDNAKNTLYLQMNSLKPEDTAVYYCAADRYIRARQGDYWGAYEYDYWGQGTQVTVSS
notes: also called DLLBII115A5; 115A5; not shown: C-terminal c-myc tag and His6 tag
FMAT hDLL4 % inhibition [3]: 74%
FMAT mDLL4 % inhibition [4]: 84%

B18: DLLBII96C03 (VHH)
VHH: EVQLVESGGGLVQPGGSLRLSCAASGFTFGNYDMSWVRQAPGKGPEWVSAINSGGGDTYYADSVKGRFTISRDNAKNTLYLQMNSLKPEDTAVYYCATPRGWGPTGPHEYGYWGQGTQVTVSS
notes: also called DLLBII96C3; DLLBII96CO3; not shown: C-terminal c-myc tag and His6 tag
FMAT hDLL4 % inhibition [3]: 75%
FMAT mDLL4 % inhibition [4]: 83%

B19: DLLBII112E07 (VHH)
VHH: EVQLVESGGGLVQAGGSLRLSCAASGRTVRSYATGWFRQAPGKEREFVAALRWSIGSIASVYYDDSVKGRFTISGDNAENTVYLQMNALKPEDTAIYYCASTTRGRYSALSASAYDYWGQGTQVTVSS
notes: tested as periplasmic extract; also called DLLBII112E7; not shown: C-terminal c-myc tag and His6 tag
FMAT hDLL4 % inhibition [3]: 80%
FMAT mDLL4 % inhibition [4]: 85%

B20: DLLBII95F02 (VHH)
VHH: EVQLVESGGGSVQAGGSLRLSCAASGRTFSSYAMGWFRQAPGKEREFVAAINWSGGYTYYADSVRGRFTISRDNAKNTVYLQMNSLKPEDTAVYYCAAPAPGSSGYEYDYWGQGTQVTVSS
notes: tested as periplasmic extract; also called DLLBII95F2; not shown: C-terminal c-myc tag and His6 tag
FMAT hDLL4 % inhibition [3]: 81%
FMAT mDLL4 % inhibition [4]: 71%

B21: DLLBII61F05 (VHH)
VHH: EVQLVESGGGLVQPGGSLRLSCTASGFTFSSYAMSWVRQAPGKGLEWVSFINKDGSDTGYADSVKGRFTISRDNAKNTMYLQMNSLKPEDTAVYFCETRTSRSPRPRGQGTQVTVSS
notes: tested as periplasmic extract; also called DLLBII61F5; not shown: C-terminal c-myc tag and His6 tag
FMAT hDLL4 % inhibition [3]: 74%
FMAT mDLL4 % inhibition [4]: 76%

B22: DLLBII62C11 (VHH)
VHH: EVQLMESGGGLVQPGGSLRLSCVAAGFTFSNYYMSWVRQAPGKGLEWVSVISPDGSNTYYADTVKGRFTISRGNAKNTLFLQMTGLKSEDAAVYYCARGSGSWGVHGQGTQVTVSS
notes: not shown: C-terminal c-myc tag and His6 tag
FMAT hDLL4 % inhibition [3]: 74%
FMAT mDLL4 % inhibition [4]: 71%

B23: DLLBII101H09 (VHH)
VHH: EVQLVESGGGLVQPGGSLRLSCAASGFTLGYYTIVWFRQAPGKERKGVSCISSRDGSRYYADSVKGRFTISRDNAKNTVYLRMNSLKPEDTAVYYCAAGPDCSSYDYWGQGTQVTVSS
notes: tested as periplasmic extract; also called DLLBII101H9; not shown: C-terminal c-myc tag and His6 tag
FMAT hDLL4 % inhibition [3]: 87%
FMAT mDLL4 % inhibition [4]: 75%

B24: DLLBII104C04 (VHH)
VHH: EVQLVESGGGLVQAGGSLRLSCAAAGSTFSSYVMGWYRQAPGKQRELVAHISTRGITYYADSVKGRFTISRDNAKNTMYLQMNSLKPEDTAVYYCNTRRNFLSNYWGQGTQVTVSS
notes: tested as periplasmic extract; also called DLLBII104C4; not shown: C-terminal c-myc tag and His6 tag
FMAT hDLL4 % inhibition [3]: 87%
FMAT mDLL4 % inhibition [4]: 83%

B25: DLLBII104A03 (VHH)
VHH: EVQLVESGGGLVQAGGSLRLSCAASGDIPRIAAMGWYRQAPGKQRELVATVSNAATTRYADSAKGRFTISRDNAKTVSLQMDNLKPEDTGVYYCYSLATTVTPSWVNYWGQGTQVTVSS
notes: tested as periplasmic extract; also called DLLBII104A3; not shown: C-terminal c-myc tag and His6 tag
FMAT hDLL4 % inhibition [3]: 86%
FMAT mDLL4 % inhibition [4]: 83%

B26: DLLBII61F07 (VHH)
VHH: EVQLVESGGGLVQAGGSLRLSCAASGRTFSRYAMGWFRQAPGKEREFVAAINWSGGSTYYADSVKGRFTISRDNAKNTVYLQMNSLKPEDTAVYDCAASNYYSVYDDRPVMDYWGQGTQVTVSS
notes: tested as periplasmic extract; also called DLLBII61F7; not shown: C-terminal c-myc tag and His6 tag
FMAT hDLL4 % inhibition [3]: 79%
FMAT mDLL4 % inhibition [4]: 77%

B27: DLLBII107C03 (VHH)
VHH: EVQLVESGGGLVQPGGSLRLSCEVSGSIGSVSDMRWYRQAPGLQYELVARITSGSITDYSDSVKGRFTISRDNAKNTVYLQMNSLKPEDTAVYYCNADVQHSAWLKPLTYWGQGTQVTVSS
notes: tested as periplasmic extract; also called DLLBII107C3; not shown: C-terminal c-myc tag and His6 tag
FMAT hDLL4 % inhibition [3]: 75%
FMAT mDLL4 % inhibition [4]: 80%
